Target: T1, AmrZ (Pseudomonas aeruginosa PAO1) (UniProt G3XCY4)
T1 sequence: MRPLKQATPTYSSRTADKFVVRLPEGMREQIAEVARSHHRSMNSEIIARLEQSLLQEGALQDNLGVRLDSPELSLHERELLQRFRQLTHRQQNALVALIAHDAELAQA
Test: EMSA

**Q.** For “GTTATCTGCTTTCGGCCAAGAGATTTGGCTCCTTGCATATTATAAGAACCCCAACACTTCCCGTCGTACCTTGAATGCCCCGCCTAGCGGAGAGGCATGAATACGCTCCGTTTTATTGATTTTCAAAGCCATGAGCACGGAGTCGATTTTATAATAATCAGGATTATCCGACGTGCGCTGA (double strand) [exsA promoter]”, which binding is on record?
**A.** The binding was “no binding”.
